Reference: article PMC7278498, “Crystal structures of the GH18 domain of the bifunctional peroxiredoxin–chitinase CotE from Clostridium difficile” (Acta Crystallographica. Section F, Structural Biology …, 2020)

Tests used:
[1] = target: T1, pentapeptide Gly-Pro-Ala-Met-Lys (C. difficile); experiment: crystal structure; monoclinic form, P2_(1), 1.3 Å; 200 mM ammonium phosphate, 22.5% PEG 3350, 291 K; one protein molecule per asymmetric unit; peptide found in the active-site groove; details: both partners purified
T1 construct: residues 349 and 350 of CotE of Clostridium difficile; the side chain of residue 5 (Lys) is uncertain in the density; also called GPAMK; pentapeptide ligand; source: derived from the N-terminus of the E. coli-made CotE(349–712) after HRV 3C protease cleavage; co-purified and co-crystallised with the protein

[2] = target: the molecule itself; experiment: crystal structure; hexagonal form, P6_(1)22, ∼2.1 Å; protein washed with 2 M guanidine hydrochloride on the Ni column (partially unfolded/refolded), tag then removed; 0.1 M sodium malonate pH 5.5, 13% PEG 3350, C8E5; dimer formed with a crystallographic symmetry mate

B1: CotE(349–712), C-terminal fragment of CotE comprising the GH18 chitinase domain (domain or fragment)
chain: GPAMKTLKDSKKLVRPQITDPYNPIVENANCPDINPIVAEYVLGNPTNVDAQLLDAVIFAFAEIDQSGNLFIPYPRFLNQLLALKGEKPSLKVIVAIGGWGAEGFSDAALTPTSRYNFARQVNQMINEYALDGIDIDWEYPGSSASGITSRPQDRENFTLLLTAIRDVIGDDKWLSVAGTGDRGYINSSAEIDKIAPIIDYFNLMSYDFTAGETGPNGRKHQANLFDSDLSLPGYSVDAMVRNLENAGMPSEKILLGIPFYGRLGATITRTYDELRRDYINKNGYEYRFDNTAQVPYLVKDGDFAMSYDDALSIFLKTQYVLRNCLGGVFSWTSTYDQANILARTMSIGINDPEVLKEELEGIYGQF
notes: CotE spore coat protein (peroxiredoxin-chitinase) of Clostridium difficile, residues 349-712; In the monoclinic crystal the model holds Ile363-Phe712; In the hexagonal crystal the protein is a 3D domain-swapped dimer with an intermolecular Cys376-Cys670 disulfide; also called CotE chitinase domain; chitinase domain of CotE; source: E. coli BL21(DE3), purified (HisTrap, HRV 3C cleavage, second …)
binding result [1]: binds | stoichiometry N [2]: 2
